Reference: patent US20140274782A1, “AFFINITY REAGENTS AND METHODS FOR DETECTION, PURIFICATION, AND PROTEOMIC ANALYSIS OF METHYLATED PROTEINS” (The Board of Trustees of the Leland Stanford Junior …, priority 2013, published 2014)

B1: KHSRP (protein, UniProt Q92945 2-711, looked up)
Far upstream element-binding …: SDYSTGGPPPGPPPPAGGGGGAGGAGGGPPPGPPGAGDRGGGGPGGGGPGGGSAGGPSQPPGGGGPGIRKDAFADAVQRARQIAAKIGGDAATTVNNSTPDFGFGGQKRQLEDGDQPESKKLASQGDSISSQLGPIHPPPRTSMTEEYRVPDGMVGLIIGRGGEQINKIQQDSGCKVQISPDSGGLPERSVSLTGAPESVQKAKMMLDDIVSRGRGGPPGQFHDNANGGQNGTVQEIMIPAGKAGLVIGKGGETIKQLQERAGVKMILIQDGSQNTNVDKPLRIIGDPYKVQQACEMVMDILRERDQGGFGDRNEYGSRIGGGIDVPVPRHSVGVVIGRSGEMIKKIQNDAGVRIQFKQDDGTGPEKIAHIMGPPDRCEHAARIINDLLQSLRSGPPGPPGGPGMPPGGRGRGRGQGNWGPPGGEMTFSIPTHKCGLVIGRGGENVKAINQQTGAFVEISRQLPPNGDPNFKLFIIRGSPQQIDHAKQLIEEKIEGPLCPVGPGPGGPGPAGPMGPFNPGPFNQGPPGAPPHAGGPPPHQYPPQGWGNTYPQWQPPAPHDPSKAAAAAADPNAAWAAYYSHYYQQPPGPVPGPAPAPAAPPAQGEPPQPPPTGQSDYTKAWEEYYKKIGQQPQQPGAPPQQDYTKAWEEYYKKQAQVATGGGPGAPPGSQPDYSAAWAEYYRQQAAYYGQTPGPGGPQPPPTQQGQQQAQ
B2: CPSF1 (protein, UniProt Q10570 1-1443, looked up)
Cleavage and polyadenylation …: MYAVYKQAHPPTGLEFSMYCNFFNNSERNLVVAGTSQLYVYRLNRDAEALTKNDRSTEGKAHREKLELAASFSFFGNVMSMASVQLAGAKRDALLLSFKDAKLSVVEYDPGTHDLKTLSLHYFEEPELRDGFVQNVHTPRVRVDPDGRCAAMLVYGTRLVVLPFRRESLAEEHEGLVGEGQRSSFLPSYIIDVRALDEKLLNIIDLQFLHGYYEPTLLILFEPNQTWPGRVAVRQDTCSIVAISLNITQKVHPVIWSLTSLPFDCTQALAVPKPIGGVVVFAVNSLLYLNQSVPPYGVALNSLTTGTTAFPLRTQEGVRITLDCAQATFISYDKMVISLKGGEIYVLTLITDGMRSVRAFHFDKAAASVLTTSMVTMEPGYLFLGSRLGNSLLLKYTEKLQEPPASAVREAADKEEPPSKKKRVDATAGWSAAGKSVPQDEVDEIEVYGSEAQSGTQLATYSFEVCDSILNIGPCANAAVGEPAFLSEEFQNSPEPDLEIVVCSGHGKNGALSVLQKSIRPQVVTTFELPGCYDMWTVIAPVRKEEEDNPKGEGTEQEPSTTPEADDDGRRHGFLILSREDSTMILQTGQEIMELDTSGFATQGPTVFAGNIGDNRYIVQVSPLGIRLLEGVNQLHFIPVDLGAPIVQCAVADPYVVIMSAEGHVTMFLLKSDSYGGRHHRLALHKPPLHHQSKVITLCLYRDLSGMFTTESRLGGARDELGGRSGPEAEGLGSETSPTVDDEEEMLYGDSGSLFSPSKEEARRSSQPPADRDPAPFRAEPTHWCLLVRENGTMEIYQLPDWRLVFLVKNFPVGQRVLVDSSFGQPTTQGEARREEATRQGELPLVKEVLLVALGSRQSRPYLLVHVDQELLIYEAFPHDSQLGQGNLKVRFKKVPHNINFREKKPKPSKKKAEGGGAEEGAGARGRVARFRYFEDIYGYSGVFICGPSPHWLLVTGRGALRLHPMAIDGPVDSFAPFHNVNCPRGFLYFNRQGELRISVLPAYLSYDAPWPVRKIPLRCTAHYVAYHVESKVYAVATSTNTPCARIPRMTGEEKEFETIERDERYIHPQQEAFSIQLISPVSWEAIPNARIELQEWEHVTCMKTVSLRSEETVSGLKGYVAAGTCLMQGEEVTCRGRILIMDVIEVVPEPGQPLTKNKFKVLYEKEQKGPVTALCHCNGHLVSAIGQKIFLWSLRASELTGMAFIDTQLYIHQMISVKNFILAADVMKSISLLRYQEESKTLSLVSRDAKPLEVYSVDFMVDNAQLGFLVSDRDRNLMVYMYLPEAKESFGGMRLLRRADFHVGAHVNTFWRTPCRGATEGLSKKSVVWENKHITWFATLDGGIGLLLPMQEKTYRRLLMLQNALTTMLPHHAGLNPRAFRMLHVDRRTLQNAVRNVLDGELLNRYLYLSTMERSELAKKIGTTPDIILDDLLETDRVTAHF
B3: SYNCRIP (protein, UniProt O60506 2-623, looked up)
Heterogeneous nuclear …: ATEHVNGNGTEEPMDTTSAVIHSENFQTLLDAGLPQKVAEKLDEIYVAGLVAHSDLDERAIEALKEFNEDGALAVLQQFKDSDLSHVQNKSAFLCGVMKTYRQREKQGTKVADSSKGPDEAKIKALLERTGYTLDVTTGQRKYGGPPPDSVYSGQQPSVGTEIFVGKIPRDLFEDELVPLFEKAGPIWDLRLMMDPLTGLNRGYAFVTFCTKEAAQEAVKLYNNHEIRSGKHIGVCISVANNRLFVGSIPKSKTKEQILEEFSKVTEGLTDVILYHQPDDKKKNRGFCFLEYEDHKTAAQARRRLMSGKVKVWGNVGTVEWADPIEDPDPEVMAKVKVLFVRNLANTVTEEILEKAFSQFGKLERVKKLKDYAFIHFDERDGAVKAMEEMNGKDLEGENIEIVFAKPPDQKRKERKAQRQAAKNQMYDDYYYYGPPHMPPPTRGRGRGGRGGYGYPPDYYGYEDYYDYYGYDYHNYRGGYEDPYYGYEDFQVGARGRGGRGARGAAPSRGRGAAPPRGRAGYSQRGGPGSARGVRGARGGAQQQRGRGVRGARGGRGGNVGGKRKADGYNQPDSKRRQTNNQNWGSQPIAQQPLQGGDHSGNYGYKSENQEFYQDTFGQQWK

How the values were obtained:
G9a and GLP = target: T1, G9a and GLP (Homo sapiens, UniProt Q96KQ7+Q9H9B1); assay: Triple SILAC pull-down after UNC0638 treatment of 293T cells, DMSO/UNC0638 ratio of protein captured by 3×MBT; assay type: cell-based; design: endogenous in cells; host or cells: HEK 293T; details: for Relative to UNC0638 UNC Heavy / Relative to UNC0638 UNC Light: SILAC ratio DMSO/UNC0638 of protein pulled down with 3xMBT; for Relative to UNC0638 UNC Heavy: UNC0638 in heavy SILAC media; for Relative to UNC0638 UNC Light: UNC0638 in light SILAC media; for Relative to UNC0638 Average: average of UNC Light and UNC Heavy experiments;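 for all read-outs here: mass spectrometry (Q-Exactive) SILAC quantitation, DMSO/UNC0638 ratio computed after subtracting 3×MBTD355N mutant pull-down background, only proteins with at least twofold 3×MBT over mutant signal considered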
T1 sequence (Q96KQ7 2-1210 limits assumed): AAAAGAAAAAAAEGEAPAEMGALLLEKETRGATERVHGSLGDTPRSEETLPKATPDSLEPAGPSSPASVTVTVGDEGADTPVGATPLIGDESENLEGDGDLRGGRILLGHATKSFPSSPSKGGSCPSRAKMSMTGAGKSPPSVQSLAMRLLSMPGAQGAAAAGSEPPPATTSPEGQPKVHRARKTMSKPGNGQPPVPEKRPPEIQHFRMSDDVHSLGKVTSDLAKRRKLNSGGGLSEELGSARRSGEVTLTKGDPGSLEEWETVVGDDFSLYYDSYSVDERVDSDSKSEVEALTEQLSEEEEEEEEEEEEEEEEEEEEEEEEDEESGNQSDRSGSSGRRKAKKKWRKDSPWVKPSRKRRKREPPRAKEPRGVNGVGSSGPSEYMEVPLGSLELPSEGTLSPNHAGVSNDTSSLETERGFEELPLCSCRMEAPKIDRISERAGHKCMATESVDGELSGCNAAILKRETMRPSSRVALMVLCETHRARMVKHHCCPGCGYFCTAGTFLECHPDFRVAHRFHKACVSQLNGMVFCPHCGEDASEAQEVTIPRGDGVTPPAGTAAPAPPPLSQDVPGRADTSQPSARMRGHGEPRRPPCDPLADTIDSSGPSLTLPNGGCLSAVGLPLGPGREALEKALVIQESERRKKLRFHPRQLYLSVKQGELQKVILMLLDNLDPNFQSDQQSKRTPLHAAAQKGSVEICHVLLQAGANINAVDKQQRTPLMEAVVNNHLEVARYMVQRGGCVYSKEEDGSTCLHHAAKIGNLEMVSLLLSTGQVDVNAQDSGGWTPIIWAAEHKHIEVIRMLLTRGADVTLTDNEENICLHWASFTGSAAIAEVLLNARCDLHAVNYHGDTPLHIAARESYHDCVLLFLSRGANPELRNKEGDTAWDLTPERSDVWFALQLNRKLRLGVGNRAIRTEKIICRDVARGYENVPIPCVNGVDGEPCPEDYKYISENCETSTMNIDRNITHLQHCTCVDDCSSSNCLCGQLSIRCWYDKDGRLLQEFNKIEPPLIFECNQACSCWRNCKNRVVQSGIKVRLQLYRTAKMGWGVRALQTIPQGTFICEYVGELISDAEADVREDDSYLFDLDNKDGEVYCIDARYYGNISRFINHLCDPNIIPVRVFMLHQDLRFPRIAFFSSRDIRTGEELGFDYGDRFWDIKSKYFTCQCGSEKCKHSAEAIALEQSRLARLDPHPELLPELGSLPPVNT
T1 sequence (Q9H9B1 2-1298 limits assumed): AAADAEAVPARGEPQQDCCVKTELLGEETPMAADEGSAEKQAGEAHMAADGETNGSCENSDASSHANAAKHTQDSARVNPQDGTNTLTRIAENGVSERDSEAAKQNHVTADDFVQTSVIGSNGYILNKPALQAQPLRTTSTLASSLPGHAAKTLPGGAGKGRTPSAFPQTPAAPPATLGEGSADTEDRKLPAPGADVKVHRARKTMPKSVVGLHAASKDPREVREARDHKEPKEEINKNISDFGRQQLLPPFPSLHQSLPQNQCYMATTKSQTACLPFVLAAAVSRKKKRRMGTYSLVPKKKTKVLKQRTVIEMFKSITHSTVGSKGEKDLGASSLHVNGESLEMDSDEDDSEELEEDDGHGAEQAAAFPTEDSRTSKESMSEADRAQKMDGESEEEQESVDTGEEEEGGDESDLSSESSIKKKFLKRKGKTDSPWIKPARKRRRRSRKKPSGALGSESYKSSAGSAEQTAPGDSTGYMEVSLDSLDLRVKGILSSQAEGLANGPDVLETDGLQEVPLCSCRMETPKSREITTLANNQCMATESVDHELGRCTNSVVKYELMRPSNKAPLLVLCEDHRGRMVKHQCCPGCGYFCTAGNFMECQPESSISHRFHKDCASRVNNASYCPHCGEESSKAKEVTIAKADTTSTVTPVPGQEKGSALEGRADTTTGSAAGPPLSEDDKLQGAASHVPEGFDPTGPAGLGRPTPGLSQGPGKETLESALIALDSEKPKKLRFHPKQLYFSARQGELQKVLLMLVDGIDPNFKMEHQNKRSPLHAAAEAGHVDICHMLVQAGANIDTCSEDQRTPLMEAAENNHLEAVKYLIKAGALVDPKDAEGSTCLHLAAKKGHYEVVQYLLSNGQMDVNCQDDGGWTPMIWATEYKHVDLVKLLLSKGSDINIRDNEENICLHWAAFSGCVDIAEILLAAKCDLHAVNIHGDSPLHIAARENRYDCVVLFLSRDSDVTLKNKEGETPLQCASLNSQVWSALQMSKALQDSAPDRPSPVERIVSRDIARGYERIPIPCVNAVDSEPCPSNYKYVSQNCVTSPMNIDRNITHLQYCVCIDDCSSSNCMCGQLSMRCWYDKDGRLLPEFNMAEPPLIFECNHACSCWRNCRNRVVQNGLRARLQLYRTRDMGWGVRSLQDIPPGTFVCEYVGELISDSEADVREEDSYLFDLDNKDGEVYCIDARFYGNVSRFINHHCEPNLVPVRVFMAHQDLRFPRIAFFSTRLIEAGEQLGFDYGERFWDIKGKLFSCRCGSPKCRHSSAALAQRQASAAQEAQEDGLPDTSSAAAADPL

3×MBT domain of L3MBTL1 = assay: Triple SILAC pull-down, 3xMBT/3xMBTD355N ratio (cytoplasmic, nuclear and chromatin fractions of 293T cells); assay type: binding, human; details: SILAC ratio, pull-down 3xMBT vs 3xMBTD355N; for 3xMBT/D355N UNC Heavy: experiment with UNC0638 in heavy SILAC media; for 3xMBT/D355N UNC Light: experiment with UNC0638 in light SILAC media;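 for all read-outs here: proteins quantified with MaxQuant, requiring at least two unique peptides and quantification in both label directions, normalized to the mean of proteins from a digested loading control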

Molecule	Relative to UNC0638 UNC Heavy (G9a and GLP)	Relative to UNC0638 UNC Light (G9a and GLP)	Relative to UNC0638 Average (G9a and GLP)	3xMBT/D355N UNC Heavy (3×MBT domain of L3MBTL1)	3xMBT/D355N UNC Light (3×MBT domain of L3MBTL1)
B1	0.17 log base 2	0.16 log base 2	0.16 log base 2	3.34 log base 2	3.18 log base 2
B2	0.17 log base 2	0.15 log base 2	0.16 log base 2	2.44 log base 2	3.15 log base 2
B3	0.14 log base 2	0.17 log base 2	0.15 log base 2	2.28 log base 2	3.48 log base 2
